Test results from PMC3057058 (Virology, 2011).

B1: simian virus 40 (SV40) wild-type VP1, in virus-like particles (natural protein)
chain: APTKRKGSCPGAAPKKPKEPVQVPKLVIKGGIEVLGVKTGVDSFTEVECFLNPQMGNPDEHQKGLSKSLAAEKQFTDDSPDKEQLPCYSVARIPLPNINEDLTCGNILMWEAVTVKTEVIGVTAMLNLHSGTQKTHENGAGKPIQGSNFHFFAVGGEPLELQGVLANYRTKYPAQTVTPKNATVDSQQMNTDHKAVLDKDNAYPVECWVPDPSKNENTRYFGTYTGGENVPPVLHITNTATTVLLDEQGVGPLCKADSLYVSAVDICGLFTNTSGTQQWKGLPRYFKITLRKRSVKNPYPISFLLSDLINRRTQRVDGQPMIGMSSQVEEVRVYEDTEELPGDPDMIRYIDEFGQTTTRMQ

Experiments:
[1] = target: avian polyomavirus (APV) major capsid protein VP1 (avian polyomavirus (APV), strain BFDV-5) (UniProt P13891); test: cryo-EM structure
[2] = target: avian polyomavirus (APV) major capsid protein VP1 (avian polyomavirus (APV), strain BFDV-5) (UniProt P13891); test: negative-stain electron microscopy
cryo-EM structure = target: the molecule itself; test: cryo-EM structure

Molecule | stoichiometry N [1] | stoichiometry N [2] | binding result (cryo-EM structure)
avian polyomavirus (APV) major capsid protein VP1 (from UniProt P13891 1-343) (natural protein) | 5 | 5 | 
B1 |  |  | binds
